In patent US20140304847:

What was measured:
ZFN-Rab38-R (artificial) = test: cell_activity; conditions: with ZFN-Rab38-L; 3 of 52 mice from mRNA-injected zygotes with Rab38-cht vector, no NHEJ inhibition
ZFN-Rab38-L (artificial) = test: cell_activity; conditions: with ZFN-Rab38-R; 3 of 52 mice from mRNA-injected zygotes with Rab38-cht vector, no NHEJ inhibition

| Sequence | activity (% targeted mice) (ZFN-Rab38-R (artificial)) | activity (% targeted mice) (ZFN-Rab38-L (artificial)) |
| --- | --- | --- |
| ATGCAGACACCTCACAAGGAGCACCTGTACAAGCTGCTGGTGATCGGCGACCTGGGTGTGGGCAAGACCAGCATTATCAAGCGCTATGTGCACCAAAACTTCTCCTCGCACTACCGGGCCACCATTGGTGTGGACTTCGCGCTGAAGGTGCTCCACTGGGACCCAGAGACGGTGGTGCGCTTGCAGCTCTGGGACATTGCTG (double strand) [Rab38 exon 1 ZFN-R half-site] | 5 |  |
| ATGCAGACACCTCACAAGGAGCACCTGTACAAGCTGCTGGTGATCGGCGACCTGGGTGTGGGCAAGACCAGCATTATCAAGCGCTATGTGCACCAAAACTTCTCCTCGCACTACCGGGCCACCATTGGTGTGGACTTCGCGCTGAAGGTGCTCCACTGGGACCCAGAGACGGTGGTGCGCTTGCAGCTCTGGGACATTGCTG (double strand) [Rab38 exon 1 ZFN-L half-site] |  | 5 |
